Test results reported in PMC9482650, “Quantitative fragmentomics allow affinity mapping of interactomes” (Nature Communications, 2022).
Positions count from the first letter of the chain named.

B1: SMCHD1, A6NHR9 (peptide)
chain: QNRIITKTDV
B2: NOS1AP, O75052 (peptide)
chain: GDGLDDEIAV
B3: UNC93A, Q86WB7 (peptide)
chain: AEDEEIQTKM
B4: NECTIN3, Q9NQS3 (peptide)
chain: SVISRREWYV

What follows are binders tested against PDLIM1, O00151 (assay: holdup assay). Conditions: plain residues with an end cap or a label only (N-terminal biotin on a linker: ado-ado).
Design: key: below the threshold = too weak to quantify, mostly under pKd 3.1 to 4

Sequence of PDLIM1, O00151 (O00151 1-87): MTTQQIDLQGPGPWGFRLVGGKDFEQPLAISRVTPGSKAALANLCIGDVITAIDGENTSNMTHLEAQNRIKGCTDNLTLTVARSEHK

Row | Binder | pKd
1 | B1 | below the threshold
2 | B2 | below the threshold
3 | B3 | below the threshold
4 | B4 | below the threshold

These binders were tested against NHERF2_2, Q15599 (assay: holdup assay). Conditions: plain residues with an end cap or a label only (N-terminal biotin on a linker: ado-ado).
Design: key: below the threshold = too weak to quantify, mostly under pKd 3.1 to 4

Sequence of NHERF2_2, Q15599 (Q15599 142-238): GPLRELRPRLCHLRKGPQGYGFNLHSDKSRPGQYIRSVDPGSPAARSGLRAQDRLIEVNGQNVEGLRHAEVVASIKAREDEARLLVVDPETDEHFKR

Row | Binder | pKd
5 | B1 | below the threshold
6 | B2 | below the threshold
7 | B3 | 4.81
8 | B4 | below the threshold

Each binder was assayed against MAGI2_6, Q86UL8 (assay: holdup assay). Conditions: plain residues with an end cap or a label only (N-terminal biotin on a linker: ado-ado).
Design: key: below the threshold = too weak to quantify, mostly under pKd 3.1 to 4

Sequence of MAGI2_6, Q86UL8 (Q86UL8 1141-1229): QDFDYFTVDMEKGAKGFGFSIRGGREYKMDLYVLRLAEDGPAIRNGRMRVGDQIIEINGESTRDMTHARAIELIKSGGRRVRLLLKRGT

Row | Binder | pKd
9 | B1 | below the threshold
10 | B2 | below the threshold
11 | B3 | below the threshold
12 | B4 | 3.76

The binders below were run against TJP2_1, Q9UDY2 (assay: holdup assay). Conditions: plain residues with an end cap or a label only (N-terminal biotin on a linker: ado-ado).
Design: key: below the threshold = too weak to quantify, mostly under pKd 3.1 to 4

Sequence of TJP2_1, Q9UDY2 (Q9UDY2 24-128): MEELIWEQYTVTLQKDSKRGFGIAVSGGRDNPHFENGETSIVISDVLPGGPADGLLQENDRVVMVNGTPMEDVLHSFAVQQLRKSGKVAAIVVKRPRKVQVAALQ

Row | Binder | pKd
13 | B1 | 3.61
14 | B2 | below the threshold
15 | B3 | below the threshold
16 | B4 | 4.63

These binders were tested against T1, MPP6, Q9NZW5 (assay: holdup assay). Conditions: plain residues with an end cap or a label only (N-terminal biotin on a linker: ado-ado).
T1 sequence (Q9NZW5 125-219, limits assumed, looked up): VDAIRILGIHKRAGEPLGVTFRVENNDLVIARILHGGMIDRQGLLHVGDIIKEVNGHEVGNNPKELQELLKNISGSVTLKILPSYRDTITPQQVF
Design: key: below the threshold = too weak to quantify, mostly under pKd 3.1 to 4

Row | Binder | pKd
17 | B1 | below the threshold
18 | B2 | below the threshold
19 | B3 | below the threshold
20 | B4 | 4.48

Each binder was assayed against DLG2_2, Q15700 (assay: holdup assay). Conditions: plain residues with an end cap or a label only (N-terminal biotin on a linker: ado-ado).
Design: key: below the threshold = too weak to quantify, mostly under pKd 3.1 to 4

Sequence of DLG2_2, Q15700 (Q15700 189-283): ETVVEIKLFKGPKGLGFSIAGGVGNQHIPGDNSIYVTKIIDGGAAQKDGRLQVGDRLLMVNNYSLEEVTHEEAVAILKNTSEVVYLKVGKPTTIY

Row | Binder | pKd
21 | B1 | 3.93
22 | B2 | below the threshold
23 | B3 | below the threshold
24 | B4 | 3.49

The binders below were run against GRID2IP_1, A4D2P6 (assay: holdup assay). Conditions: plain residues with an end cap or a label only (N-terminal biotin on a linker: ado-ado).
Design: key: below the threshold = too weak to quantify, mostly under pKd 3.1 to 4

Sequence of GRID2IP_1, A4D2P6 (A4D2P6 1-87): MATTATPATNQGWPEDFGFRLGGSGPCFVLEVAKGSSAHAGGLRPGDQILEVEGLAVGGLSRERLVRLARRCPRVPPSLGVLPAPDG

Row | Binder | pKd
25 | B1 | below the threshold
26 | B2 | below the threshold
27 | B3 | below the threshold
28 | B4 | below the threshold

Each binder was assayed against GORASP2, Q9H8Y8 (assay: holdup assay). Conditions: plain residues with an end cap or a label only (N-terminal biotin on a linker: ado-ado).
Design: key: below the threshold = too weak to quantify, mostly under pKd 3.1 to 4

Row | Binder | pKd
29 | B1 | below the threshold
30 | B2 | below the threshold
31 | B3 | below the threshold
32 | B4 | 5.1

What follows are binders tested against T2, MPP2, Q14168 (assay: holdup assay). Conditions: plain residues with an end cap or a label only (N-terminal biotin on a linker: ado-ado).
T2 sequence (Q14168 180-250, limits assumed, looked up): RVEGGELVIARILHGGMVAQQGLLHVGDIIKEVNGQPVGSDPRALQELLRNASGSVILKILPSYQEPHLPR
Design: key: below the threshold = too weak to quantify, mostly under pKd 3.1 to 4

Row | Binder | pKd
33 | B1 | below the threshold
34 | B2 | below the threshold
35 | B3 | below the threshold
36 | B4 | 4.57

What follows are binders tested against LIMK2, P53671 (assay: holdup assay). Conditions: plain residues with an end cap or a label only (N-terminal biotin on a linker: ado-ado).
Design: key: below the threshold = too weak to quantify, mostly under pKd 3.1 to 4

Sequence of LIMK2, P53671 (P53671 143-248): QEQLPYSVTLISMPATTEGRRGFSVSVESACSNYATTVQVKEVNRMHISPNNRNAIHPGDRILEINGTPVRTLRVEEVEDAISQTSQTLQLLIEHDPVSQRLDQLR

Row | Binder | pKd
37 | B1 | below the threshold
38 | B2 | below the threshold
39 | B3 | below the threshold
40 | B4 | below the threshold

The binders below were run against DLG4_1, P78352 (assay: holdup assay). Conditions: plain residues with an end cap or a label only (N-terminal biotin on a linker: ado-ado).
Design: key: below the threshold = too weak to quantify, mostly under pKd 3.1 to 4

Sequence of DLG4_1, P78352 (P78352 62-152): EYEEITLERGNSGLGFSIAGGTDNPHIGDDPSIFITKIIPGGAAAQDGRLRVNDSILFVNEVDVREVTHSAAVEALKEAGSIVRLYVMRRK

Row | Binder | pKd
41 | B1 | 3.82
42 | B2 | below the threshold
43 | B3 | below the threshold
44 | B4 | below the threshold

What follows are binders tested against FRMPD2_1, Q68DX3 (assay: holdup assay). Conditions: plain residues with an end cap or a label only (N-terminal biotin on a linker: ado-ado).
Design: key: below the threshold = too weak to quantify, mostly under pKd 3.1 to 4

Sequence of FRMPD2_1, Q68DX3 (Q68DX3 770-861): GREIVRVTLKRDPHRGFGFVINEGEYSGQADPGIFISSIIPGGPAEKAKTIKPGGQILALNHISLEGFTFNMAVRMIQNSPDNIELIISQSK

Row | Binder | pKd
45 | B1 | below the threshold
46 | B2 | below the threshold
47 | B3 | below the threshold
48 | B4 | 4.51

The binders below were run against T3, PCLO, Q9Y6V0 (assay: holdup assay). Conditions: plain residues with an end cap or a label only (N-terminal biotin on a linker: ado-ado).
T3 sequence (Q9Y6V0 4491-4600, limits assumed, looked up): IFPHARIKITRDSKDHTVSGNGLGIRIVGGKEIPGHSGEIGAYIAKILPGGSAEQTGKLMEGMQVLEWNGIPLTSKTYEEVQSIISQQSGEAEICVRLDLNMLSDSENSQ
Design: key: below the threshold = too weak to quantify, mostly under pKd 3.1 to 4

Row | Binder | pKd
49 | B1 | below the threshold
50 | B2 | below the threshold
51 | B3 | below the threshold
52 | B4 | below the threshold

Each binder was assayed against MAGI3_2, Q5TCQ9 (assay: holdup assay). Conditions: plain residues with an end cap or a label only (N-terminal biotin on a linker: ado-ado).
Design: key: below the threshold = too weak to quantify, mostly under pKd 3.1 to 4

Sequence of MAGI3_2, Q5TCQ9 (Q5TCQ9 398-503): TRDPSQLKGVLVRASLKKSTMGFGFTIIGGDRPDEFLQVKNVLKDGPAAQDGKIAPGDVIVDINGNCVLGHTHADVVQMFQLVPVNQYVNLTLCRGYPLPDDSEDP

Row | Binder | pKd
53 | B1 | 4.15
54 | B2 | 3.98
55 | B3 | below the threshold
56 | B4 | 5.74

What follows are binders tested against FRMPD4, Q14CM0 (assay: holdup assay). Conditions: plain residues with an end cap or a label only (N-terminal biotin on a linker: ado-ado).
Design: key: below the threshold = too weak to quantify, mostly under pKd 3.1 to 4

Sequence of FRMPD4, Q14CM0 (Q14CM0 67-160): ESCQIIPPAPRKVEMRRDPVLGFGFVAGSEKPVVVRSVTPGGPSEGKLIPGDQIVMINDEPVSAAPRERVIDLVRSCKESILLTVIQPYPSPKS

Row | Binder | pKd
57 | B1 | below the threshold
58 | B2 | 4.43
59 | B3 | 3.63
60 | B4 | 3.97

Each binder was assayed against CASK, O14936 (assay: holdup assay). Conditions: plain residues with an end cap or a label only (N-terminal biotin on a linker: ado-ado).
Design: key: below the threshold = too weak to quantify, mostly under pKd 3.1 to 4

Sequence of CASK, O14936 (O14936 487-570): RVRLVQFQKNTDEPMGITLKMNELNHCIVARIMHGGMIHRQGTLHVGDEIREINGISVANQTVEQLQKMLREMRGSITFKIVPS

Row | Binder | pKd
61 | B1 | below the threshold
62 | B2 | below the threshold
63 | B3 | below the threshold
64 | B4 | 3.75

The binders below were run against T4, NHERF3_3, Q5T2W1 (assay: holdup assay). Conditions: plain residues with an end cap or a label only (N-terminal biotin on a linker: ado-ado).
T4 sequence (Q5T2W1 238-333, limits assumed, looked up): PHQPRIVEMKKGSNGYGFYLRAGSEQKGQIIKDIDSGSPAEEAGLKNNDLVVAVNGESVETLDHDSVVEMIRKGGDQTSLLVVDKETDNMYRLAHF
Design: key: below the threshold = too weak to quantify, mostly under pKd 3.1 to 4

Row | Binder | pKd
65 | B1 | below the threshold
66 | B2 | below the threshold
67 | B3 | 4.16
68 | B4 | below the threshold

What follows are binders tested against MAGI2_4, Q86UL8 (assay: holdup assay). Conditions: plain residues with an end cap or a label only (N-terminal biotin on a linker: ado-ado).
Design: key: below the threshold = too weak to quantify, mostly under pKd 3.1 to 4

Sequence of MAGI2_4, Q86UL8 (Q86UL8 772-865): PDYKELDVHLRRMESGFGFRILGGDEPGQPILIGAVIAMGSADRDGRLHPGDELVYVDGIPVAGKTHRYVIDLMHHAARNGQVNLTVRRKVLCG

Row | Binder | pKd
69 | B1 | 3.69
70 | B2 | below the threshold
71 | B3 | below the threshold
72 | B4 | 4.11

These binders were tested against T5, APBA1_2, Q02410 (assay: holdup assay). Conditions: plain residues with an end cap or a label only (N-terminal biotin on a linker: ado-ado).
T5 sequence (Q02410 742-832, limits assumed, looked up): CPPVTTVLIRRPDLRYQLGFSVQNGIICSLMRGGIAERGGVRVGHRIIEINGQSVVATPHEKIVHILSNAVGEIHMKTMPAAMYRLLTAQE
Design: key: below the threshold = too weak to quantify, mostly under pKd 3.1 to 4

Row | Binder | pKd
73 | B1 | 3.9
74 | B2 | below the threshold
75 | B3 | below the threshold
76 | B4 | 3.85

These binders were tested against GRIP2_3, Q9C0E4 (assay: holdup assay). Conditions: plain residues with an end cap or a label only (N-terminal biotin on a linker: ado-ado).
Design: key: below the threshold = too weak to quantify, mostly under pKd 3.1 to 4

Sequence of GRIP2_3, Q9C0E4 (Q9C0E4 238-339): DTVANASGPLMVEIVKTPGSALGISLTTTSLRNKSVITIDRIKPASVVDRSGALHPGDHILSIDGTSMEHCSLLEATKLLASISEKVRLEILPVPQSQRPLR

Row | Binder | pKd
77 | B1 | below the threshold
78 | B2 | below the threshold
79 | B3 | below the threshold
80 | B4 | below the threshold

The binders below were run against T6, GRIP1_4, Q9Y3R0 (assay: holdup assay). Conditions: plain residues with an end cap or a label only (N-terminal biotin on a linker: ado-ado).
T6 sequence (Q9Y3R0 467-571, limits assumed, looked up): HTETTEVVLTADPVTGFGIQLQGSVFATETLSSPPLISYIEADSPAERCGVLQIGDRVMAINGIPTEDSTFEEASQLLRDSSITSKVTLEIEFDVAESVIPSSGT
Design: key: below the threshold = too weak to quantify, mostly under pKd 3.1 to 4

Row | Binder | pKd
81 | B1 | below the threshold
82 | B2 | below the threshold
83 | B3 | below the threshold
84 | B4 | below the threshold

These binders were tested against T7, SNTA1, Q13424 (assay: holdup assay). Conditions: plain residues with an end cap or a label only (N-terminal biotin on a linker: ado-ado).
T7 sequence (Q13424 82-180, limits assumed, looked up): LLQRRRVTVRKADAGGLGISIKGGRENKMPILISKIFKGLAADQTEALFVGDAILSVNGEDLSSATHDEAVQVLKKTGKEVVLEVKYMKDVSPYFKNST
Design: key: below the threshold = too weak to quantify, mostly under pKd 3.1 to 4

Row | Binder | pKd
85 | B1 | 3.61
86 | B2 | 3.75
87 | B3 | below the threshold
88 | B4 | 3.48

Each binder was assayed against T8, ARHGAP21, Q5T5U3 (assay: holdup assay). Conditions: plain residues with an end cap or a label only (N-terminal biotin on a linker: ado-ado).
T8 sequence (Q5T5U3 45-169, limits assumed, looked up): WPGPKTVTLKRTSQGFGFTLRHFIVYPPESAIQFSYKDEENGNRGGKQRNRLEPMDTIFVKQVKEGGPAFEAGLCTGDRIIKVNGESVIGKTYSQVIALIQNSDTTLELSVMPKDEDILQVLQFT
Design: key: below the threshold = too weak to quantify, mostly under pKd 3.1 to 4

Row | Binder | pKd
89 | B1 | 4.04
90 | B2 | 4.51
91 | B3 | 3.9
92 | B4 | 4.29

The binders below were run against DLG1_1, Q12959 (assay: holdup assay). Conditions: plain residues with an end cap or a label only (N-terminal biotin on a linker: ado-ado).
Design: key: below the threshold = too weak to quantify, mostly under pKd 3.1 to 4

Row | Binder | pKd
93 | B1 | 3.63
94 | B2 | below the threshold
95 | B3 | below the threshold
96 | B4 | below the threshold

What follows are binders tested against IL16_4, Q14005 (assay: holdup assay). Conditions: plain residues with an end cap or a label only (N-terminal biotin on a linker: ado-ado).
Design: key: below the threshold = too weak to quantify, mostly under pKd 3.1 to 4

Sequence of IL16_4, Q14005 (Q14005 1229-1329): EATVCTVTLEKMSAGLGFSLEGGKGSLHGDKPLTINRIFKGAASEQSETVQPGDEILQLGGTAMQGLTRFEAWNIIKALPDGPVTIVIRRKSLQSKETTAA

Row | Binder | pKd
97 | B1 | below the threshold
98 | B2 | below the threshold
99 | B3 | 3.52
100 | B4 | below the threshold

These binders were tested against ARHGEF12, Q9NZN5-2 (assay: holdup assay). Conditions: plain residues with an end cap or a label only (N-terminal biotin on a linker: ado-ado).
Design: key: below the threshold = too weak to quantify, mostly under pKd 3.1 to 4

Sequence of ARHGEF12, Q9NZN5-2 (Q9NZN5 other isoform, or with tags, fused parts or gaps): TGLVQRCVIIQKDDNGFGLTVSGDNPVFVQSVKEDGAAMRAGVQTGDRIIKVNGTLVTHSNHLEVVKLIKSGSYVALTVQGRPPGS

Row | Binder | pKd
101 | B1 | 4.19
102 | B2 | below the threshold
103 | B3 | below the threshold
104 | B4 | 3.64

These binders were tested against Inadl_2, Q8NI35 (assay: holdup assay). Conditions: plain residues with an end cap or a label only (N-terminal biotin on a linker: ado-ado).
Design: key: below the threshold = too weak to quantify, mostly under pKd 3.1 to 4

Sequence of Inadl_2, Q8NI35 (Q8NI35 238-335): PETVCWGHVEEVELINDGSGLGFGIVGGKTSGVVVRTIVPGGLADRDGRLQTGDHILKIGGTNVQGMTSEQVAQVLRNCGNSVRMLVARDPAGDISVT

Row | Binder | pKd
105 | B1 | below the threshold
106 | B2 | 3.99
107 | B3 | below the threshold
108 | B4 | 4.91

The binders below were run against T9, APBA2_2, Q99767 (assay: holdup assay). Conditions: plain residues with an end cap or a label only (N-terminal biotin on a linker: ado-ado).
T9 sequence (Q99767 654-744, limits assumed, looked up): T5 sequence (Q02410 742-832, limits assumed, looked up) with R10K, R15K, P59A, H65Q, I66A, A70S, Y84F, A89G
Design: key: below the threshold = too weak to quantify, mostly under pKd 3.1 to 4

Row | Binder | pKd
109 | B1 | below the threshold
110 | B2 | below the threshold
111 | B3 | below the threshold
112 | B4 | below the threshold
